Source: patent US11795460B2, “Compositions and methods for TTR gene editing and treating ATTR amyloidosis” (Intellia Therapeutics, Inc., priority 2017, dated 2023)
Strand notation (5' to 3'): a small letter for the sugar, then the base; units joined by * are phosphorothioate-linked, units joined directly phosphodiester-linked; [ ] holds rarer units or linkages, { } end groups; capitals alone tell only the bases. m = 2'-O-methyl; r = 2'-OH (RNA)

Test system: off-target genomic sites
Assay: Off-target oligo insertion based assay in HEK293_Cas9 cells, dgRNAs and sgRNAs (Tables 23, 24)
Assay type: cell-based, human
Details: for # Sites (off-target integration sites detected): Table 24, TTR sgRNAs in HekCas9 cells, insertion detection method; for # Sites in HekCas9 cells (Example 5): Table 30, TTR sgRNAs, repeated from Example 5 for comparison
Outline: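 In HEK293 cells constitutively expressing Spy Cas9, crRNA (15 nM) plus trRNA (15 nM), or modified sgRNAs, were lipofected with donor oligo (10 nM). Genomic DNA was collected at 24 h, and oligo-insertion libraries were sequenced on MiSeq/HiSeq to map potential off-target cleavage sites.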

Molecule	# Sites (off-target integration sites detected)	# Sites in HekCas9 cells (Example 5)
G000496: TTR sgRNA modified sequence, Human, SEQ ID No. 103; guide sequence of CR005304 (nucleic acid) guide: mG*mG*mC*rCrGrUrGrCrArUrGrUrGrUrUrCrArGrArArGrUrUrUrUrArGrAmGmCmUmAmGmAmAmAmUmAmGmCrArArGrUrUrArArArArUrArArGrGrCrUrArGrUrCrCrGrUrUrArUrCrAmAmCmUmUmGmAmAmAmAmAmGmUmGmGmCmAmCmCmGmAmGmUmCmGmGmUmGmCmU*mU*mU*mU	1	1
G000495: TTR sgRNA modified sequence, Human, SEQ ID No. 102; guide sequence of CR003343 (nucleic acid) guide: mC*mA*mG*rArGrGrArCrArCrUrUrGrGrArUrUrCrArCrGrUrUrUrUrArGrAmGmCmUmAmGmAmAmAmUmAmGmCrArArGrUrUrArArArArUrArArGrGrCrUrArGrUrCrCrGrUrUrArUrCrAmAmCmUmUmGmAmAmAmAmAmGmUmGmGmCmAmCmCmGmAmGmUmCmGmGmUmGmCmU*mU*mU*mU	13	13
G000498: TTR sgRNA modified sequence, Human, SEQ ID No. 105; guide sequence of CR003359 (nucleic acid) guide: mA*mG*mU*rGrArGrUrCrUrGrGrArGrArGrCrUrGrCrArGrUrUrUrUrArGrAmGmCmUmAmGmAmAmAmUmAmGmCrArArGrUrUrArArArArUrArArGrGrCrUrArGrUrCrCrGrUrUrArUrCrAmAmCmUmUmGmAmAmAmAmAmGmUmGmGmCmAmCmCmGmAmGmUmCmGmGmUmGmCmU*mU*mU*mU	82	82
G000567: TTR sgRNA modified sequence, Human, SEQ ID No. 109; guide sequence of CR003352 (nucleic acid) guide: mG*mA*mA*rArGrGrCrUrGrCrUrGrArUrGrArCrArCrCrGrUrUrUrUrArGrAmGmCmUmAmGmAmAmAmUmAmGmCrArArGrUrUrArArArArUrArArGrGrCrUrArGrUrCrCrGrUrUrArUrCrAmAmCmUmUmGmAmAmAmAmAmGmUmGmGmCmAmCmCmGmAmGmUmCmGmGmUmGmCmU*mU*mU*mU	9	9
G000571: TTR sgRNA modified sequence, Human, SEQ ID No. 112; guide sequence of CR005301 (nucleic acid) guide: mG*mU*mC*rArCrArGrArArArCrArCrUrCrArCrCrGrUrGrUrUrUrUrArGrAmGmCmUmAmGmAmAmAmUmAmGmCrArArGrUrUrArArArArUrArArGrGrCrUrArGrUrCrCrGrUrUrArUrCrAmAmCmUmUmGmAmAmAmAmAmGmUmGmGmCmAmCmCmGmAmGmUmCmGmGmUmGmCmU*mU*mU*mU	16	16
G000568: TTR sgRNA modified sequence, Human, SEQ ID No. 110; guide sequence of CR003391 (nucleic acid) guide: mG*mG*mC*rUrGrUrCrGrUrCrArCrCrArArUrCrCrCrArGrUrUrUrUrArGrAmGmCmUmAmGmAmAmAmUmAmGmCrArArGrUrUrArArArArUrArArGrGrCrUrArGrUrCrCrGrUrUrArUrCrAmAmCmUmUmGmAmAmAmAmAmGmUmGmGmCmAmCmCmGmAmGmUmCmGmGmUmGmCmU*mU*mU*mU	937	936
G000572: TTR sgRNA modified sequence, Human, SEQ ID No. 113; guide sequence of CR003385 (nucleic acid) guide: mC*mC*mC*rCrUrArCrUrCrCrUrArUrUrCrCrArCrCrArGrUrUrUrUrArGrAmGmCmUmAmGmAmAmAmUmAmGmCrArArGrUrUrArArArArUrArArGrGrCrUrArGrUrCrCrGrUrUrArUrCrAmAmCmUmUmGmAmAmAmAmAmGmUmGmGmCmAmCmCmGmAmGmUmCmGmGmUmGmCmU*mU*mU*mU	15	15
G000500: TTR sgRNA modified sequence, Human, SEQ ID No. 107; guide sequence of CR003337 (nucleic acid) guide: mC*mC*mA*rGrUrCrCrArGrCrArArGrGrCrArGrArGrGrGrUrUrUrUrArGrAmGmCmUmAmGmAmAmAmUmAmGmCrArArGrUrUrArArArArUrArArGrGrCrUrArGrUrCrCrGrUrUrArUrCrAmAmCmUmUmGmAmAmAmAmAmGmUmGmGmCmAmCmCmGmAmGmUmCmGmGmUmGmCmU*mU*mU*mU	46	46
G000497: TTR sgRNA modified sequence, Human, SEQ ID No. 104; guide sequence of CR003335 (nucleic acid) guide: mC*mU*mG*rCrUrCrCrUrCrCrUrCrUrGrCrCrUrUrGrCrGrUrUrUrUrArGrAmGmCmUmAmGmAmAmAmUmAmGmCrArArGrUrUrArArArArUrArArGrGrCrUrArGrUrCrCrGrUrUrArUrCrAmAmCmUmUmGmAmAmAmAmAmGmUmGmGmCmAmCmCmGmAmGmUmCmGmGmUmGmCmU*mU*mU*mU	26	26
G000570: TTR sgRNA modified sequence, Human, SEQ ID No. 111; guide sequence of CR003347 (nucleic acid) guide: mC*mA*mU*rUrGrArUrGrGrCrArGrGrArCrUrGrCrCrUrGrUrUrUrUrArGrAmGmCmUmAmGmAmAmAmUmAmGmCrArArGrUrUrArArArArUrArArGrGrCrUrArGrUrCrCrGrUrUrArUrCrAmAmCmUmUmGmAmAmAmAmAmGmUmGmGmCmAmCmCmGmAmGmUmCmGmGmUmGmCmU*mU*mU*mU	19	19
G000501: TTR sgRNA modified sequence, Human, SEQ ID No. 108; guide sequence of CR005300 (nucleic acid) guide: mU*mC*mA*rCrArGrArArArCrArCrUrCrArCrCrGrUrArGrUrUrUrUrArGrAmGmCmUmAmGmAmAmAmUmAmGmCrArArGrUrUrArArArArUrArArGrGrCrUrArGrUrCrCrGrUrUrArUrCrAmAmCmUmUmGmAmAmAmAmAmGmUmGmGmCmAmCmCmGmAmGmUmCmGmGmUmGmCmU*mU*mU*mU	4	4
